This is an account of results in patent publication US20210395379A1 (NUMAB THERAPEUTICS, published 2021).

Positions count from the first letter of the chain named.

Assay [1] addresses T1, human CD137 expressed on Jurkat cells (human, UniProt Q07011 24-255). In words: Flow cytometry on CD137 expressing Jurkat cells, detection with APC-labelled goat anti-human IgG. Background: A flow cytometer gives signals particle by particle.
Assay [2] concerns the target T2, human Fc-tagged CD40 (AcroBiosystems, cat. CD0-H5253) (human, UniProt P25942 21-193).
T2 construct: also called human CD40; not shown: Fc tag
In words: SPR (Biacore T200), Fc-tagged CD40 captured by anti-human Fc, scFv as analyte. As for the experimental part:
(§1) Binding of scFvs to human Fc-tagged CD40 (AcroBiosystems, cat. CD0-H5253) and human Fc-tagged OX40 (Acro-Biosystems, cat. OX0-H5255) was determined by SPR analysis on a T200 device (Biacore, GE Healthcare). In this experiment, Fc-tagged CD40 and OX40 were captured using the Human Antibody Capture kit from GE healthcare (cat. BR-1008-39). After each analyte injection cycle, the anti-human Fc-specific IgG was regenerated and new antigen was captured. The scFvs were injected as analyte using a high concentration of 180 nM of the analyte diluted in running buffer. Association and dissociation time were set to 300 s and 720 s, respectively. Obtained sensorgrams were fitted using the 1:1 binding model.
In general terms: SPR reads the build-up and loss of mass on a sensor chip optically.

The target in assay [3] is T3, human Fc-tagged OX40 (Acro-Biosystems, cat. OX0-H5255) (human, UniProt P43489 29-216).
T3 construct: also called human OX40; not shown: Fc tag
T3 sequence (looked up): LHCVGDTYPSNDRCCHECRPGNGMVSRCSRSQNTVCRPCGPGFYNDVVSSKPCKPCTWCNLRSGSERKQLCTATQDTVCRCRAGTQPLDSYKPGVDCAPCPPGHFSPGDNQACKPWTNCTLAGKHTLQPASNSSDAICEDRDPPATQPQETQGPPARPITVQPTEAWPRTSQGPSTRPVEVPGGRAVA
Briefly: SPR (Biacore T200), Fc-tagged OX40 captured by anti-human Fc, scFv as analyte. How it is done: as §1

In assay [4] the target is T1, human CD137 expressed on Jurkat cells. Briefly: flow cytometry on CD137 expressing Jurkat cells, detection with APC labelled protein L. How it is done:
50,000 CD137 expressing Jurkat cells (or as reference cell line Jurkat cells lacking CD137 expression) were distributed to round bottom non-tissue culture treated 96 well plates. Cells were washed twice with 100 μl PBS by centrifugation at 400×g for 5 min. […] After 1 h incubation at 4° C. on a nutating mixer, cells were washed 3 times with 100 μl staining buffer and centrifugation steps of 5 min at 400×g. […] Plates were incubated 1 h at 4° C. on a nutating mixer, then washed 3 times with 100 μl of staining buffer and resuspended in a final volume of 50 μl of staining buffer. Finally, APC signal of 20,000 events per well was analyzed by flow cytometry using a Novocyte flow cytometer system (ACEA Bioscience).

Assay [5] addresses T4, cynomolgus monkey Fc-tagged CD137 (R&D Systems, cat. 9324-4B-100) (cynomolgus monkey, UniProt A9YYE7 24-186).
T4 construct: also called cynomolgus CD137; CD137-Fc chimeric protein (cynomolgus); not shown: the Fc tag (and any linker) of the bought chimera (R&D Systems, cat. 9324-4B-100)
Briefly: SPR (Biacore T200), cynomolgus Fc-tagged CD137 captured by anti-human Fc, scFv as analyte. How it is done: (§2) In this experiment, Fc tagged human CD137 (R&D Systems, cat. 838-4B-100) was captured using the Human Antibody Capture kit from GE healthcare (cat. BR-1008-39). After each analyte injection cycle, the anti-human Fc-specific IgG was regenerated and new antigen was captured. The scFvs were injected as analyte using a dose response multi-cycle kinetic assay over the captured CD137 with concentrations of the analyte ranging from 0.19 to 45 nM (three-fold dilutions steps) diluted in running buffer. Association and dissociation time were set to 300 s and 720 s, respectively. The obtained sensorgrams were fitted using the 1:1 binding model.
Cross-reactivity to cynomolgus CD137 was measured with cynomolgus monkey Fc-tagged CD137 (R&D Systems, cat. 9324-4B-100) in a similar assay as used to measure binding to human CD137.

Assay [6] has as its target T5, Fc tagged human CD137 (R&D Systems, cat. 838-4B-100) (human, UniProt Q07011 24-186).
T5 construct: Bought Fc chimera; also called CD137 Fc chimera; human CD137 (tagged with Fc); not shown: Fc tag of the bought chimera
Briefly: SPR (Biacore T200), Fc tagged human CD137 captured by anti-human Fc, scFv as analyte 0.19-45 nM. As for the experimental part: as §2

T4 sequence (A9YYE7 entry or part of it limits assumed): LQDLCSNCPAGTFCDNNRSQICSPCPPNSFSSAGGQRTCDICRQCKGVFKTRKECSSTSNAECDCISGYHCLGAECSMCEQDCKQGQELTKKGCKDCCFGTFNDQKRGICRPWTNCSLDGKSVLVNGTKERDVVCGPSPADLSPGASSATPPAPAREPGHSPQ
T2 sequence (P25942 21-193 limits assumed): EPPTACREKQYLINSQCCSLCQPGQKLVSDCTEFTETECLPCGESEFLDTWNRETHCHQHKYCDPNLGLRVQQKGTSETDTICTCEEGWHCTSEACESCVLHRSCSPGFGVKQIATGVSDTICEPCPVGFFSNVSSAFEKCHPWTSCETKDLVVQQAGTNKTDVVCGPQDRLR

For orientation: EC50 (read off the curve) means the concentration at which the effect is half-maximal. In turn, urelumab (antibody) came in with an EC50 (read off the curve) in assay [1] of 0.06 µg/mL.

B1: PRO1359 (38-27-A11 sc02) (scFv)
scFv: DIQMTQSPSSLSASVGDRVTITCQASQSISNRLAWYQQKPGKAPKLLIYSASTLASGVPSRFSGSGSGTDFTLTISSLQPEDFATYYCQSTYYGNDGNAFGTGTKVTVLGGGGGSGGGGSGGGGSGGGGSEVQLVESGGGLVQPGGSLRLSCAASGFSFSANYYPCWVRQAPGKGLEWIGCIYGGSSDITYDANWTKGRFTISRDNSKNTVYLQMNSLRAEDTAVYYCARSAWYSGWGGDLWGQGTLVTVSS
notes: VL-linker-VH, CDR graft, Vk1/VH3; also called anti-4-1BB scFv
What is called EC50 is the concentration giving half of the maximal effect. In general, Kd refers to the concentration at which binding is half-saturated. As usually defined, the koff is the first-order rate constant of dissociation. Broadly, the kon is the rate constant with which the complex forms. Regarding B1, the binding result in assay [2] is listed as “no binding (tested: 180 nM)”. In addition, the binding result in assay [3] is “no binding (tested: 180 nM)”. In assay [4], the EC50 came to 3.99 µg/mL and the “Maximum binding (relative to urelumab)” value turned out to be 18%. Further, in assay [5], the Kd was 2.88 nM, the off-rate (koff) was 0.00267 s⁻¹ and the kon stood at 927000 M⁻¹ s⁻¹. In assay [6], this molecule displayed a koff of 0.00281 s⁻¹ and an on-rate constant (kon) of 866000 M⁻¹ s⁻¹.

B2: PRO1360 (38-27-A11 sc03) (scFv)
scFv: B1 scFv with I2F, M4L, A43P, V132S, Y227F, Q244P
notes: VL-linker-VH, full graft, Vk1/VH3
As to B2, the binding result in assay [2] is reported as “no binding (tested: 180 nM)”. Besides, in assay [3], the binding result is recorded as “no binding (tested: 180 nM)”. In assay [4], a half-maximal response (EC50) required 0.148 µg/mL and the “Maximum binding (relative to urelumab)” value stood at 29%. For the same molecule, in assay [5], the Kd came out at 0.24 nM, the koff is 0.000252 s⁻¹ and the on-rate constant (kon) is 1.05e+06 M⁻¹ s⁻¹. Moreover, in assay [6], the koff is 0.0003 s⁻¹ and the on-rate constant (kon) is 1.28e+06 M⁻¹ s⁻¹.
